{"source": "patent US20070298448A1", "about": "(PROTEOSYS, published 2007)", "key": {"[1]": {"target": "T1, human angiotensin II (human, UniProt P01019 25-32)", "T1 construct": "also called calibration peptide; control peptide", "test": "peptide incubated with mutant on Ni-NTA-agarose beads, washed, acid eluate read by MALDI-TOF"}, "[2]": {"target": "T2, human angiotensin I (human, UniProt P01019 25-34)", "T2 construct": "also called calibration peptide; control peptide", "test": "peptide incubated with mutant on Ni-NTA-agarose beads, washed, acid eluate read by MALDI-TOF"}, "[3]": {"target": "T3, [Cys(Bz)^84, Glu(OBz)^85]-CD4(81-92) (UniProt P01730 106-117, reading uncertain)", "T3 construct": "range 81-92; Synthetic derivatized peptide", "T3 peptide": "TYIC(Bz′)E(OBz)VEDQKEE", "test": "mutant immobilized on Ni-NTA-agarose beads, peptide incubated, washed, eluted with 200 mM acetic acid, MALDI-TOF"}}, "note": "Primed or numbered codes have the meaning given here. Ends that are not written are not given here. Bz′ = not defined here; OBz = not defined here", "data": [{"binder": "6xHis-Ser237Ala-V8Δ48 mutant (enzyme, also called Ser237Ala-V8Δ48 protease; anhydro mutant of the V8 proteinase) MRGSHHHHHHGSVILPNNDRHQITDTTNGHYAPVTYIQVEAPTGTFIASGVVVGKDTLLTNKHVVDATHGDPHALKAFPSAINQDNYPNGGFTAEQITKYSGEGDLAIVKFSPNEQNKHIGEVVKPATMSNNAETQVNQNITVTGYPGDKPVATMWESKGKITYLKGEAMQYDLSTTGGNAGSPVFNEKNEVIGIHWGGVPNEFNGAVFINENVRNFLKQNIEDIHFANDDQKLN", "values": [{"measurement": "binding result", "setting": "[1]", "result": "no binding"}, {"measurement": "binding result", "setting": "[2]", "result": "no binding"}, {"measurement": "binding result", "setting": "[3]", "result": "binds"}]}]}
